± gives the standard deviation of the averaged measurements.
System: ATP
Experiment: switch fluorescence ratio, 500 uM ATP over buffer (Cy3 cluster intensity, sum of 5 cycles each) (fold (ratio)); higher = stronger signal-on switching upon ATP binding; sequences stand for … in TCGTCGGCAGCGTCAGATGTGTATAAGAGACAGTTTTTTTTTTTTTTTTTTTTTTTTT…TC
Conditions: aptamer strand: ATP DNA aptamer (quencher-CACCTGGGGGAGTATTGCGGAGGAAGG + anchor), 100 nM annealed; ATP concentration: 500 uM
Summary of the method: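 For every switch-domain sequence, the fluorescence ratio is the mean of per-cluster values, each being summed target-cycle Cy3 intensity over summed buffer-cycle Cy3 intensity. Clusters outside 100-1000 RFU were excluded. On a modified Illumina MiSeq flow-cell, the Cy3-labelled switching-strand clusters were annealed to 100 nM quencher-labelled ATP aptamer, imaged in selection buffer and then after 15 min with 500 uM ATP at 22 °C. Five such cycles were run, with NaOH stripping and re-annealing between them.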
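Further: ATP exposure 15 min at 22 °C before imaging.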

| Sequence | switch fluorescence ratio |
| --- | --- |
| GGCTAAGTTT | 0.97 ± 0.02 |
| GGCTAGAATC | 0.986 ± 0.024 |
| GGCTAGGGGA | 1.13 ± 0.21 |
| GGCTATTGGA | 0.971 ± 0.012 |
| GGCTCAATTT | 0.967 ± 0.012 |
| GGCTGAAGAG | 1.02 ± 0.033 |
| GGCTGAGTTA | 1.021 ± 0.0025 |
| GGCTGGGGTA | 0.9884 ± 0.0032 |
| GGCTGGTTGG | 1.01 ± 0.017 |
| GGCTGTTATT | 0.986 ± 0.039 |
| GGCTGTTTGG | 1 ± 0.012 |
| GGCTTAAGTA | 0.9833 ± 0.0084 |
| GGCTTATGGA | 0.98 ± 0.038 |
| GGCTTCCCGG | 1.16 ± 0.002 |
| GGCTTCTAAG | 0.994 ± 0.026 |
| GGCTTGAACA | 1.01 ± 0.034 |
| GGCTTGCGGT | 0.9974 ± 0.004 |
| GGCTTTACGG | 1.012 ± 0.0081 |
| GGCTTTGGAT | 0.977 ± 0.018 |
| GGCTTTGGCG | 1.01 ± 0.015 |
| GGCTTTGGGG | 0.975 ± 0.04 |
| GGCTTTTGGG | 1.03 ± 0.088 |
| GGGAAAAAGG | 0.983 ± 0.029 |

| Sequence | switch fluorescence ratio |
| --- | --- |
| GGGAAAACCA | 1.01 ± 0.0098 |
| GGGAAAATCA | 0.999 ± 0.02 |
| GGGAAAGAAC | 1.15 ± 0.2 |
| GGGAAAGGCA | 1.015 ± 0.0076 |
| GGGAAAGTAT | 0.982 ± 0.032 |
| GGGAAATGTT | 1.06 ± 0.016 |
| GGGAAATTAG | 1 ± 0.026 |
| GGGAAATTGT | 0.997 ± 0.017 |
| GGGAACAGCA | 1.027 ± 0.0047 |
| GGGAACGATC | 1.003 ± 0.0083 |
| GGGAACGGCC | 1.054 ± 0.0036 |
| GGGAACGTTT | 0.993 ± 0.011 |
| GGGAAGCATG | 1.02 ± 0.022 |
| GGGAAGCATT | 0.989 ± 0.023 |
| GGGAAGCGCC | 0.9967 ± 0.0032 |
| GGGAAGGCGG | 1.02 ± 0.027 |
| GGGAAGTATG | 1 ± 0.057 |
| GGGAAGTCAA | 1.02 ± 0.032 |
| GGGAAGTCGG | 0.9824 ± 0.0094 |
| GGGAAGTGAG | 1.013 ± 0.006 |
| GGGAATAATA | 0.991 ± 0.023 |
| GGGAATAATG | 1.01 ± 0.0091 |
| GGGAATACGT | 1.03 ± 0.029 |

| Sequence | switch fluorescence ratio |
| --- | --- |
| GGGAATAGCG | 0.977 ± 0.046 |
| GGGAATCGCT | 0.973 ± 0.023 |
| GGGAATGGGA | 0.997 ± 0.027 |
| GGGAATTGTT | 0.977 ± 0.014 |
| GGGACACGGC | 0.996 ± 0.059 |
| GGGACAGGCG | 0.991 ± 0.095 |
| GGGACCCAAG | 1.02 ± 0.046 |
| GGGACGCGCA | 0.984 ± 0.036 |
| GGGACGGAAA | 1.11 ± 0.16 |
| GGGACGGCGG | 1.004 ± 0.0087 |
| GGGACTATTT | 1.01 ± 0.013 |
| GGGACTGGGG | 1.02 ± 0.061 |
| GGGAGAAAAT | 1.02 ± 0.011 |
| GGGAGAATAG | 0.985 ± 0.036 |
| GGGAGAATTG | 1.01 ± 0.037 |
| GGGAGACGGT | 1.02 ± 0.068 |
| GGGAGAGCA | 0.9821 ± 0.0098 |
| GGGAGAGGTG | 0.989 ± 0.027 |
| GGGAGCCAGT | 1.05 ± 0.12 |
| GGGAGCGTTT | 0.981 ± 0.046 |
| GGGAGGAAGC | 0.99 ± 0.0049 |
| GGGAGGAAGG | 0.974 ± 0.028 |
| GGGAGGAATG | 0.989 ± 0.021 |

| Sequence | switch fluorescence ratio |
| --- | --- |
| GGGAGGACTT | 0.977 ± 0.029 |
| GGGAGGATCG | 0.993 ± 0.069 |
| GGGAGGATTA | 1 ± 0.031 |
| GGGAGGCGAT | 0.975 ± 0.051 |
| GGGAGGCGGT | 1.01 ± 0.019 |
| GGGAGGGTGC | 1.02 ± 0.07 |
| GGGAGTGGGG | 0.989 ± 0.025 |
| GGGAGTGGGT | 0.99 ± 0.024 |
| GGGAGTGTGG | 1.001 ± 0.0062 |
| GGGAGTTGCT | 0.986 ± 0.039 |
| GGGAGTTTCG | 1.06 ± 0.095 |
| GGGATAAAGA | 1.001 ± 0.003 |
| GGGATAAAGG | 0.993 ± 0.035 |
| GGGATAAGAG | 0.973 ± 0.029 |
| GGGATAAGGC | 1.08 ± 0.014 |
| GGGATAAGGT | 0.979 ± 0.03 |
| GGGATAATTG | 0.978 ± 0.024 |
| GGGATACTAG | 1.01 ± 0.02 |
| GGGATACTTT | 1.5 ± 0.73 |
| GGGATAGAGC | 0.965 ± 0.05 |
| GGGATAGGGC | 1.04 ± 0.054 |
| GGGATAGGTT | 1.07 ± 0.12 |
| GGGATAGTTT | 1 ± 0.063 |

| Sequence | switch fluorescence ratio |
| --- | --- |
| GGGATATCGA | 0.975 ± 0.021 |
| GGGATATGAT | 0.9829 ± 0.0029 |
| GGGATCGAGG | 1.01 ± 0.035 |
| GGGATCGTAC | 1.07 ± 0.041 |
| GGGATCGTAT | 0.9856 ± 0.0054 |
| GGGATGGGAC | 1.043 ± 0.0081 |
| GGGATGGTGT | 0.962 ± 0.016 |
| GGGATGGTTA | 0.971 ± 0.056 |
| GGGATGTAAG | 0.966 ± 0.027 |
| GGGATGTTTT | 0.991 ± 0.012 |
| GGGATTACGG | 0.9899 ± 0.0051 |
| GGGATTAGTT | 1.03 ± 0.023 |
| GGGATTATGG | 1.01 ± 0.038 |
| GGGATTCAAC | 1.018 ± 0.0085 |
| GGGATTCCTG | 0.9777 ± 0.0061 |
| GGGATTCTTA | 0.996 ± 0.021 |
| GGGATTTACG | 1.02 ± 0.019 |
| GGGATTTGTT | 0.9888 ± 0.0057 |
| GGGATTTTCT | 1.011 ± 0.0091 |
| GGGATTTTGT | 0.983 ± 0.012 |
| GGGATTTTTT | 1.06 ± 0.16 |
| GGGCAAAGTA | 0.924 ± 0.039 |
| GGGCAAGAAG | 1.021 ± 0.0073 |

| Sequence | switch fluorescence ratio |
| --- | --- |
| GGGCAAGCAT | 0.999 ± 0.037 |
| GGGCAAGGGC | 1.038 ± 0.01 |
| GGGCAATTGA | 1 ± 0.051 |
| GGGCACGAAG | 1 ± 0.013 |
| GGGCACGCTG | 1.033 ± 0.0053 |
| GGGCAGAGGA | 1.0929 ± 0.00017 |
| GGGCATGATG | 1.02 ± 0.055 |
| GGGCATGGGC | 0.9965 ± 0.0015 |
| GGGCATGTAG | 0.996 ± 0.058 |
| GGGCATTGTG | 1.03 ± 0.056 |
| GGGCATTTTG | 0.998 ± 0.015 |
| GGGCATTTTT | 0.9824 ± 0.0041 |
| GGGCCAGTGA | 1.03 ± 0.039 |
| GGGCCATGTA | 1 ± 0.034 |
| GGGCCCCTTG | 1.01 ± 0.073 |
| GGGCCCTAAT | 0.982 ± 0.03 |
| GGGCCGATCA | 0.997 ± 0.036 |
| GGGCCGGGGC | 1.01 ± 0.024 |
| GGGCCGGGGG | 1 ± 0.022 |
| GGGCCGGGTT | 1.01 ± 0.021 |
| GGGCCGTGGG | 0.992 ± 0.017 |
| GGGCCTATAG | 0.9859 ± 0.0085 |
| GGGCCTGGTG | 1.42 ± 0.013 |

| Sequence | switch fluorescence ratio |
| --- | --- |
| GGGCCTGTGA | 1 ± 0.03 |
| GGGCGAAGCG | 0.986 ± 0.035 |
| GGGCGCAACG | 1.05 ± 0.073 |
| GGGCGCGAAC | 1.06 ± 0.018 |
| GGGCGCTTTC | 1.03 ± 0.028 |
| GGGCGGCACG | 0.966 ± 0.054 |
| GGGCGGCCTA | 0.999 ± 0.021 |
| GGGCGGCCTT | 1.03 ± 0.068 |
| GGGCGGGGGG | 1.01 ± 0.03 |
| GGGCGGGGTA | 1.01 ± 0.027 |
| GGGCGGTGTC | 1.01 ± 0.042 |
| GGGCGTTGGG | 0.948 ± 0.059 |
| GGGCGTTTGA | 1 ± 0.046 |
| GGGCTAGGGT | 1.02 ± 0.023 |
| GGGCTATATT | 0.9904 ± 0.0084 |
| GGGCTATTAG | 0.98 ± 0.013 |
| GGGCTCAGAA | 1.03 ± 0.028 |
| GGGCTGGCTG | 0.998 ± 0.062 |
| GGGCTGGGTC | 0.98 ± 0.038 |
